Source: patent US20140087995A1 (published 2014)
Numbered stars: 1 amine (or outer) side, 2 acyl side, 3 side chain; on linkers, the order of the positions; unused ones are H or OH. Bridge positions count the residues as written; N and C are the ends. Side chains are listed from the residue outwards. Ends that are not written are not given here. * marks the point of attachment. C20 diacid = O=C(O)CCCCCCCCCCCCCCCCCCC(=O)*; γGlu = O=C(O)[C@H](CCC(=O)[*:2])N[*:1]

T1: human calcitonin receptor (human, UniProt P30988 25-474)
T1 construct: whole, on cells; also called hCTR; hCT
T1 sequence (looked up): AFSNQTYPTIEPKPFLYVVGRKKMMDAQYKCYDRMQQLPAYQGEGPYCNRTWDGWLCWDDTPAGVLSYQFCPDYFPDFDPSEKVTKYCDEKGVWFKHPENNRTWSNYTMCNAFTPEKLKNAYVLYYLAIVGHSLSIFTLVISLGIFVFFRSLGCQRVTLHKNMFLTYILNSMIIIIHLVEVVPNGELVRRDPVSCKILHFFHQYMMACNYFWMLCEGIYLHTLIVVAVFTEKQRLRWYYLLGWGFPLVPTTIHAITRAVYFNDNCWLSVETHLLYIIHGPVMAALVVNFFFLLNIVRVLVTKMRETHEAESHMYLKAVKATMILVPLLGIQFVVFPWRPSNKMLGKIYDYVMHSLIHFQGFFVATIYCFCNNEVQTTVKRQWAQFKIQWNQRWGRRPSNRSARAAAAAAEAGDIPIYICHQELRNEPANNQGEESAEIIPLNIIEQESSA


Target: T1, human calcitonin receptor
Experiment: SPA competition with 125I-calcitonin, membranes of BHK hCTR cells (Assay VII)
In short: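 BHK hCTR membranes 35 ng/μL + SPA beads 0.05 mg/well; buffer 50 mM Hepes pH 7.4, 1 mM CaCl2, 5 mM MgCl₂, 0.1% OA, 0.02% Tween20. 120 min, 25° C., shaking. Scintillation count; IC50 by one-site binding competition.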

Row | Binder | IC50 [nM]
1 | K([γGlu-C20 diacid])CNTATCATQRLANFLRHSSPNFGAIPSSTNVGSETY-NH2 (disulfide 2-7; N-terminus assumed; SMILES CC[C@H](C)[C@H](NC(=O)[C@H](C)NC(=O)CNC(=O)[C@H](Cc1ccccc1)NC(=O)[C@H](CC(N)=O)NC(=O)[C@@H]1CCCN1C(=O)[C@H](CO)NC(=O)[C@H](CO)NC(=O)[C@H](Cc1c[nH]cn1)NC(=O)[C@H](CCCNC(=N)N)NC(=O)[C@H](CC(C)C)NC(=O)[C@H](Cc1ccccc1)NC(=O)[C@H](CC(N)=O)NC(=O)[C@H](C)NC(=O)[C@H](CC(C)C)NC(=O)[C@H](CCCNC(=N)N)NC(=O)[C@H](CCC(N)=O)NC(=O)[C@@H](NC(=O)[C@H](C)NC(=O)[C@@H]1CSSC[C@H](NC(=O)[C@@H](N)CCCCNC(=O)CC[C@H](NC(=O)CCCCCCCCCCCCCCCCCCC(=O)O)C(=O)O)C(=O)N[C@@H](CC(N)=O)C(=O)N[C@@H]([C@@H](C)O)C(=O)N[C@@H](C)C(=O)N[C@@H]([C@@H](C)O)C(=O)N1)[C@@H](C)O)C(=O)N1CCC[C@H]1C(=O)N[C@@H](CO)C(=O)N[C@@H](CO)C(=O)N[C@H](C(=O)N[C@@H](CC(N)=O)C(=O)N[C@H](C(=O)NCC(=O)N[C@@H](CO)C(=O)N[C@@H](CCC(=O)O)C(=O)N[C@H](C(=O)N[C@@H](Cc1ccc(O)cc1)C(N)=O)[C@@H](C)O)C(C)C)[C@@H](C)O, also called compound 27) [N^ε1-[(4S)-4-carboxy-4-(19-carboxynonadecanoylamino)butanoyl]-[Arg17,Pro21,Pro27,Glu35]-h-amylin] | 34.5
2 | K([γGlu-C20 diacid])CNTATCATQRLARFLRHSSPNFGAIPSSTNVGPNTY-NH2 (disulfide 2-7; N-terminus assumed; SMILES CC[C@H](C)[C@H](NC(=O)[C@H](C)NC(=O)CNC(=O)[C@H](Cc1ccccc1)NC(=O)[C@H](CC(N)=O)NC(=O)[C@@H]1CCCN1C(=O)[C@H](CO)NC(=O)[C@H](CO)NC(=O)[C@H](Cc1c[nH]cn1)NC(=O)[C@H](CCCNC(=N)N)NC(=O)[C@H](CC(C)C)NC(=O)[C@H](Cc1ccccc1)NC(=O)[C@H](CCCNC(=N)N)NC(=O)[C@H](C)NC(=O)[C@H](CC(C)C)NC(=O)[C@H](CCCNC(=N)N)NC(=O)[C@H](CCC(N)=O)NC(=O)[C@@H](NC(=O)[C@H](C)NC(=O)[C@@H]1CSSC[C@H](NC(=O)[C@@H](N)CCCCNC(=O)CC[C@H](NC(=O)CCCCCCCCCCCCCCCCCCC(=O)O)C(=O)O)C(=O)N[C@@H](CC(N)=O)C(=O)N[C@@H]([C@@H](C)O)C(=O)N[C@@H](C)C(=O)N[C@@H]([C@@H](C)O)C(=O)N1)[C@@H](C)O)C(=O)N1CCC[C@H]1C(=O)N[C@@H](CO)C(=O)N[C@@H](CO)C(=O)N[C@H](C(=O)N[C@@H](CC(N)=O)C(=O)N[C@H](C(=O)NCC(=O)N1CCC[C@H]1C(=O)N[C@@H](CC(N)=O)C(=O)N[C@H](C(=O)N[C@@H](Cc1ccc(O)cc1)C(N)=O)[C@@H](C)O)C(C)C)[C@@H](C)O, also called compound 65) | 53.5
3 | K([γGlu-C20 diacid])CNTATCATQRLANFLRHSSPNFGAIPSSTNVGSKTY-NH2 (disulfide 2-7; N-terminus assumed; SMILES CC[C@H](C)[C@H](NC(=O)[C@H](C)NC(=O)CNC(=O)[C@H](Cc1ccccc1)NC(=O)[C@H](CC(N)=O)NC(=O)[C@@H]1CCCN1C(=O)[C@H](CO)NC(=O)[C@H](CO)NC(=O)[C@H](Cc1c[nH]cn1)NC(=O)[C@H](CCCNC(=N)N)NC(=O)[C@H](CC(C)C)NC(=O)[C@H](Cc1ccccc1)NC(=O)[C@H](CC(N)=O)NC(=O)[C@H](C)NC(=O)[C@H](CC(C)C)NC(=O)[C@H](CCCNC(=N)N)NC(=O)[C@H](CCC(N)=O)NC(=O)[C@@H](NC(=O)[C@H](C)NC(=O)[C@@H]1CSSC[C@H](NC(=O)[C@@H](N)CCCCNC(=O)CC[C@H](NC(=O)CCCCCCCCCCCCCCCCCCC(=O)O)C(=O)O)C(=O)N[C@@H](CC(N)=O)C(=O)N[C@@H]([C@@H](C)O)C(=O)N[C@@H](C)C(=O)N[C@@H]([C@@H](C)O)C(=O)N1)[C@@H](C)O)C(=O)N1CCC[C@H]1C(=O)N[C@@H](CO)C(=O)N[C@@H](CO)C(=O)N[C@H](C(=O)N[C@@H](CC(N)=O)C(=O)N[C@H](C(=O)NCC(=O)N[C@@H](CO)C(=O)N[C@@H](CCCCN)C(=O)N[C@H](C(=O)N[C@@H](Cc1ccc(O)cc1)C(N)=O)[C@@H](C)O)C(C)C)[C@@H](C)O, also called compound 35) [N^ε1-[(4S)-4-carboxy-4-(19-carboxynonadecanoylamino)butanoyl]-[Arg17,Pro21,Pro27,Lys35]-h-amylin] | 48.8

Further binders by falling IC50, results first:

Row | IC50 [nM] | Binder
4 | 130 | K([γGlu-C20 diacid])CNTATCATQRLARFLRHSSPNFGAIPSSTPVGSNTY-NH2 (disulfide 2-7; N-terminus assumed; SMILES CC[C@H](C)[C@H](NC(=O)[C@H](C)NC(=O)CNC(=O)[C@H](Cc1ccccc1)NC(=O)[C@H](CC(N)=O)NC(=O)[C@@H]1CCCN1C(=O)[C@H](CO)NC(=O)[C@H](CO)NC(=O)[C@H](Cc1c[nH]cn1)NC(=O)[C@H](CCCNC(=N)N)NC(=O)[C@H](CC(C)C)NC(=O)[C@H](Cc1ccccc1)NC(=O)[C@H](CCCNC(=N)N)NC(=O)[C@H](C)NC(=O)[C@H](CC(C)C)NC(=O)[C@H](CCCNC(=N)N)NC(=O)[C@H](CCC(N)=O)NC(=O)[C@@H](NC(=O)[C@H](C)NC(=O)[C@@H]1CSSC[C@H](NC(=O)[C@@H](N)CCCCNC(=O)CC[C@H](NC(=O)CCCCCCCCCCCCCCCCCCC(=O)O)C(=O)O)C(=O)N[C@@H](CC(N)=O)C(=O)N[C@@H]([C@@H](C)O)C(=O)N[C@@H](C)C(=O)N[C@@H]([C@@H](C)O)C(=O)N1)[C@@H](C)O)C(=O)N1CCC[C@H]1C(=O)N[C@@H](CO)C(=O)N[C@@H](CO)C(=O)N[C@H](C(=O)N1CCC[C@H]1C(=O)N[C@H](C(=O)NCC(=O)N[C@@H](CO)C(=O)N[C@@H](CC(N)=O)C(=O)N[C@H](C(=O)N[C@@H](Cc1ccc(O)cc1)C(N)=O)[C@@H](C)O)C(C)C)[C@@H](C)O, also called compound 63)
5 | 31.4 | K([γGlu-C20 diacid])CNTATCATQRLANFLRHSSPNFGAIPSSTNVGSHTY-NH2 (disulfide 2-7; N-terminus assumed; SMILES CC[C@H](C)[C@H](NC(=O)[C@H](C)NC(=O)CNC(=O)[C@H](Cc1ccccc1)NC(=O)[C@H](CC(N)=O)NC(=O)[C@@H]1CCCN1C(=O)[C@H](CO)NC(=O)[C@H](CO)NC(=O)[C@H](Cc1c[nH]cn1)NC(=O)[C@H](CCCNC(=N)N)NC(=O)[C@H](CC(C)C)NC(=O)[C@H](Cc1ccccc1)NC(=O)[C@H](CC(N)=O)NC(=O)[C@H](C)NC(=O)[C@H](CC(C)C)NC(=O)[C@H](CCCNC(=N)N)NC(=O)[C@H](CCC(N)=O)NC(=O)[C@@H](NC(=O)[C@H](C)NC(=O)[C@@H]1CSSC[C@H](NC(=O)[C@@H](N)CCCCNC(=O)CC[C@H](NC(=O)CCCCCCCCCCCCCCCCCCC(=O)O)C(=O)O)C(=O)N[C@@H](CC(N)=O)C(=O)N[C@@H]([C@@H](C)O)C(=O)N[C@@H](C)C(=O)N[C@@H]([C@@H](C)O)C(=O)N1)[C@@H](C)O)C(=O)N1CCC[C@H]1C(=O)N[C@@H](CO)C(=O)N[C@@H](CO)C(=O)N[C@H](C(=O)N[C@@H](CC(N)=O)C(=O)N[C@H](C(=O)NCC(=O)N[C@@H](CO)C(=O)N[C@@H](Cc1c[nH]cn1)C(=O)N[C@H](C(=O)N[C@@H](Cc1ccc(O)cc1)C(N)=O)[C@@H](C)O)C(C)C)[C@@H](C)O, also called compound 60) [N^ε1-[(4S)-4-carboxy-4-(19-carboxynonadecanoylamino)butanoyl]-[Arg17,Pro21,Pro27,His35]-h-amylin]
